Values of other authors, collected in paper PMC5116031.

Target: BECN1 CCD (Rattus norvegicus) (UniProt Q91XJ1)

BECN1 CCD, sequence (Q91XJ1 174-266): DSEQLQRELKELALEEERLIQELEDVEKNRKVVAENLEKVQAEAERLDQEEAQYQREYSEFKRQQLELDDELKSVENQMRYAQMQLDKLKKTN

Kd: 89 µM
Substance: BECN1 CCD (from UniProt Q91XJ1)
